Data as given in patent publication US20240116985A1 (published 2024).
Starred links: 1 amine or outer side, 2 acyl side, 3 side chain; linkers in the order of their positions; H or OH if unused. Positions of bridges follow the written chain, without caps; N, C: chain ends. Non-standard residues stand in square brackets, D forms with d. Primed or numbered codes have the meaning given here. (CH2CMe2CO2H)TriAzDap = (S)-3-(1-(2-amino-2-carboxyethyl)-1H-1,2,3-triazol-4-yl)-2,2-dimethylpropanoic acid, CC(C)(Cc1cn(C[C@H](N[*:1])C(=O)[*:2])nn1)C(=O)[*:3]; (CH2CMe2CO2H)TriAzDab = (S)-2-amino-4-(4-(2-carboxy-2-methylpropyl)-1H-1,2,3-triazol-1-yl)butanoic acid, CC(C)(Cc1cn(CC[C@H](N[*:1])C(=O)[*:2])nn1)C(=O)[*:3]; (CMe2CO2H)TriAzDab = (S)-2-amino-4-(4-(2-carboxypropan-2-yl)-1H-1,2,3-triazol-1-yl)butanoic acid, CC(C)(C(=O)[*:3])c1cn(CC[C@H](N[*:1])C(=O)[*:2])nn1; (CMe2CO2H)TriAzDap = (S)-2-amino-3-(4-(2-carboxypropan-2-yl)-1H-1,2,3-triazol-1-yl)propanoic acid, CC(C)(C(=O)[*:3])c1cn(C[C@H](N[*:1])C(=O)[*:2])nn1; PyrS2″ = (S)-3-amino-1-((pent-4-en-1-yloxy)carbonyl)pyrrolidine-3-carboxylic acid (stapling residue), C=CCCCOC(=O)N1CC[C@@](N[*:1])(C(=O)[*:2])C1; (2COOHPh)TriAzDap = (S)-2-(1-(2-amino-2-carboxyethyl)-1H-1,2,3-triazol-4-yl)benzoic acid, O=C([C@H](Cn1cc(-c2ccccc2C(=O)[*:3])nn1)N[*:1])[*:2]; (CH2CH2CO2H)TriAzDab = (S)-2-amino-4-(4-(2-carboxyethyl)-1H-1,2,3-triazol-1-yl)butanoic acid, O=C([C@H](CCn1cc(CCC(=O)[*:3])nn1)N[*:1])[*:2]; (CH2CH2CO2H)TriAzDap = (S)-2-amino-3-(4-(2-carboxyethyl)-1H-1,2,3-triazol-1-yl)propanoic acid, O=C([C@H](Cn1cc(CCC(=O)[*:3])nn1)N[*:1])[*:2]; (CH2CO2H)TriAzDab = (S)-2-amino-4-(4-(carboxymethyl)-1H-1,2,3-triazol-1-yl)butanoic acid, O=C([C@H](CCn1cc(CC(=O)[*:3])nn1)N[*:1])[*:2]; (CH2CO2H)TriAzDap = (S)-2-amino-3-(4-(carboxymethyl)-1H-1,2,3-triazol-1-yl)propanoic acid, O=C([C@H](Cn1cc(CC(=O)[*:3])nn1)N[*:1])[*:2]; B5(4) = 2,2-bis(4-pentenyl)glycine = 2-amino-2-(pent-4-en-1-yl)hept-6-enoic acid (stitching residue), C=CCCCC(CCCC=C)(N[*:1])C(=O)[*:2]; B5(5) = 2,2-bis(4-pentenyl)glycine, 2-amino-2-(pent-4-en-1-yl)hept-6-enoic acid (stitching residue), C=CCCCC(CCCC=C)(N[*:1])C(=O)[*:2]; (2COOH4NH2Ph)Dap = (S)-5-amino-2-((2-amino-2-carboxyethyl)amino)benzoic acid, Nc1ccc(NC[C@H](N[*:1])C(=O)[*:2])c(C(=O)[*:3])c1; B5(9) = 2-amino-2-(pent-4-en-1-yl)hept-6-enoic acid (2,2-bis(4-pentenyl)glycine), C=CCCCC(CCCC=C)(N[*:1])C(=O)[*:2]; (2COOHPh)TriAzDab = O=C([C@H](CCn1cc(-c2ccccc2C(=O)[*:3])nn1)N[*:1])[*:2]; d(βAsp) = O=C(O)[C@@H](CC(=O)[*:2])N[*:1]; Bta = N[C@@H](Cc1csc2ccccc12)C(=O)O; αAllylPro = C=CC[C@@]1(C(=O)O)CCCN1; tBuAla = CC(C)(C)C[C@H](N)C(=O)O; 3Thi = N[C@@H](Cc1ccsc1)C(=O)O; S8 = C=CCCCCCC[C@](C)(N)C(=O)O; PyrS2(4) = not defined here

T1: full-length beta-Catenin (Uniprot ID P35222) (Homo sapiens (Human), UniProt P35222 2-781)
T1 construct: 'mature' is the nearest allowed form; also called bCat; B-Catenin
T1 sequence: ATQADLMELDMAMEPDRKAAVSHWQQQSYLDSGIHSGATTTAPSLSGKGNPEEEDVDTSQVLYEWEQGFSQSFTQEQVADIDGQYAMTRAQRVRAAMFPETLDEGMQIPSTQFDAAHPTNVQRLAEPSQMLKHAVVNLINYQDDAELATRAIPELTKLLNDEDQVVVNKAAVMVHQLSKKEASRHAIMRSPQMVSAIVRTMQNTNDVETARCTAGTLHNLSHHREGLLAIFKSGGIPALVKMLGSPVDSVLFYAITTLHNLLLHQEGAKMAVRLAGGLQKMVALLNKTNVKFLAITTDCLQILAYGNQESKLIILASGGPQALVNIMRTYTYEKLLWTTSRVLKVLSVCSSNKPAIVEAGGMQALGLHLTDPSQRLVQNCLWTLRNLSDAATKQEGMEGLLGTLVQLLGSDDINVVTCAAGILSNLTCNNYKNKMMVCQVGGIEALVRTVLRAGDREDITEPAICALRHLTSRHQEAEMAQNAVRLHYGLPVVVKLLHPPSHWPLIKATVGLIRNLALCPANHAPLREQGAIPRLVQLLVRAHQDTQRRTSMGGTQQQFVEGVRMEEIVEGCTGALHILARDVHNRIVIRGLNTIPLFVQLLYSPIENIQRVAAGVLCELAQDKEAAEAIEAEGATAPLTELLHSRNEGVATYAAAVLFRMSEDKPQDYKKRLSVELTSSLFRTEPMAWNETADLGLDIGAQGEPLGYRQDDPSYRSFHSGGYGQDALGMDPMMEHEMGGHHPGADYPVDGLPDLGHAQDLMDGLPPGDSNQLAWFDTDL

T2: Bcat-Halo (UniProt P35222 1-781)
T2 sequence (looked up): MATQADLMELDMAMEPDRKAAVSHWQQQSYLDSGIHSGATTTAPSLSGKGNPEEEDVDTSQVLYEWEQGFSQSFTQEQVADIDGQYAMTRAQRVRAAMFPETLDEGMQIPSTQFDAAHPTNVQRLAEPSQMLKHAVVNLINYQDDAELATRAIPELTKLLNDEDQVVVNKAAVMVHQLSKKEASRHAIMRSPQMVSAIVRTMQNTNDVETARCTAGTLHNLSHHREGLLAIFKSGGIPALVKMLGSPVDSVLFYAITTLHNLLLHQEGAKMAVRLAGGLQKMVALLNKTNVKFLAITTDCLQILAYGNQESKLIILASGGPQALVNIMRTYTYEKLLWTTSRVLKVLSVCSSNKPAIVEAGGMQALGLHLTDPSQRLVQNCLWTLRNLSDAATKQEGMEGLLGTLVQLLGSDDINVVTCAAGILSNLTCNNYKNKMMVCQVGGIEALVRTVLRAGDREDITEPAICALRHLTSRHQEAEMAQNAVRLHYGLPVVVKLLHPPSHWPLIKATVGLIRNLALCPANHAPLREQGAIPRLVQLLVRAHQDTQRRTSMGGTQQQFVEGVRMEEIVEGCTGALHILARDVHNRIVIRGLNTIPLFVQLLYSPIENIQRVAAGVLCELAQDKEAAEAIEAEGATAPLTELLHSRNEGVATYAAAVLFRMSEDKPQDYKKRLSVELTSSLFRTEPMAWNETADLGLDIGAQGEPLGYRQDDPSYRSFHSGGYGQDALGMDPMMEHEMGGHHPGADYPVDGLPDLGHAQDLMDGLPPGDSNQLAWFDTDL


These binders were tested against T1, full-length beta-Catenin (Uniprot ID …) (assay: fluorescence polarization competition, full-length beta-catenin with 5FAM-TCF4(10-53) probe as competitor).
Description: The plate was incubated protected from light for 60 minutes at 20° C. prior to read. Reads were performed on a CLARIOstar plate reader (BMG Labtech) in duplicate, and data were fitted to a 1:1 binding model with hill slope using an in-house script. All provided concentrations are final concentrations.

| EC50 | Binder |
| --- | --- |
| 0.445 µM | Ac-[αAllylPro]DI[B5(9)]DELAFQ[S8]F[Bta]Q-NH2 (staple 1-4, 4-11, Stapled peptide composition; earlier-eluting HPLC peak (staple isomer)) [I-647] |
| 0.996 µM | Ac-[αAllylPro]DI[B5(9)]DEAWFQ[S8]F[Bta]Q-NH2 (staple 1-4, 4-11, Stapled peptide composition; earlier-eluting HPLC peak (staple isomer)) [I-664] |
| 0.026 µM | XDIXDEASFQXFXQ (not fully specified; As printed: Ac-PL3-Asp-Ile-B5-Asp-Glu-Ala-Ser-Phe-Gln-S8-Phe-BztA-Gln-NH2; N-terminal Ac; PL3 at 1, B5 at 4, S8 at 11 (stapled 1-4 and 4-11); BztA at 13; C-terminal NH2, Stapled peptide composition; later-eluting HPLC peak (staple isomer)) [I-662] |
| 0.451 µM | Ac-[αAllylPro][d(βAsp)]I[B5(9)]DEAAFQ[S8]F[Bta]Q-NH2 (staple 1-4, 4-11, Stapled peptide composition; later-eluting HPLC peak (staple isomer)) [I-669] |
| 5 µM | Ac-[αAllylPro]DI[B5(5)][d(βAsp)]EAAFQ[S8]F[Bta]Q-NH2 (staple 1-4, 4-11, Stapled peptide composition) [I-674] |

These binders were tested against T2, Bcat-Halo (assay: cell-based or functional assay).

| NanoBRET Abs IC50 | Binder |
| --- | --- |
| 3.7 µM | Ac-[αAllylPro]D[tBuAla][B5(4)]D[(CH2CMe2CO2H)TriAzDap]AAFL[PyrS2″][3Thi][Bta]Q-NH2 (staple 1-4, 4-11) [I-2083] |
| 28.8 µM | Ac-[αAllylPro]D[tBuAla][B5(4)]D[(2COOHPh)TriAzDab]AAFL[PyrS2″][3Thi][Bta]Q-NH2 (staple 1-4, 4-11; not fully specified) [I-2080] |
| 6.2 µM | Ac-[αAllylPro]D[tBuAla][B5(4)]D[(CMe2CO2H)TriAzDap]AAFL[PyrS2″][3Thi][Bta]Q-NH2 (staple 1-4, 4-11) [I-2085] |
| 12.3 µM | Ac-[αAllylPro]D[tBuAla][B5(4)]D[(CH2CMe2CO2H)TriAzDab]AAFL[PyrS2″][3Thi][Bta]Q-NH2 (staple 1-4, 4-11) [I-2077] |
| 9.2 µM | Ac-[αAllylPro]D[tBuAla][B5(4)]D[(CH2CO2H)TriAzDap]AAFL[PyrS2″][3Thi][Bta]Q-NH2 (staple 1-4, 4-11) [I-2084] |
| 11.6 µM | Ac-[αAllylPro]D[tBuAla][B5(4)]D[(2COOHPh)TriAzDab]AAFL[PyrS2(4)][3Thi][Bta]Q-NH2 (staple 1-4, 4-11; not fully specified; reading uncertain) [I-2081] |
| 7.7 µM | Ac-[αAllylPro]D[tBuAla][B5(4)]D[(CH2CH2CO2H)TriAzDap]AAFL[PyrS2″][3Thi][Bta]Q-NH2 (staple 1-4, 4-11) [I-2082] |
| 15.1 µM | Ac-[αAllylPro]D[tBuAla][B5(4)]D[(CMe2CO2H)TriAzDab]AAFL[PyrS2″][3Thi][Bta]Q-NH2 (staple 1-4, 4-11) [I-2079] |
| 14.1 µM | Ac-[αAllylPro]D[tBuAla][B5(4)]D[(CH2CH2CO2H)TriAzDab]AAFL[PyrS2″][3Thi][Bta]Q-NH2 (staple 1-4, 4-11) [I-2076] |
| 16.4 µM | Ac-[αAllylPro]D[tBuAla][B5(4)]D[(2COOHPh)TriAzDap]AAFL[PyrS2″][3Thi][Bta]Q-NH2 (staple 1-4, 4-11) [I-2086] |
| 6.5 µM | Ac-[αAllylPro]D[tBuAla][B5(4)]D[(2COOH4NH2Ph)Dap]AAFL[PyrS2″][3Thi][Bta]Q-NH2 (staple 1-4, 4-11) [I-2087] |
| 11.7 µM | Ac-[αAllylPro]D[tBuAla][B5(4)]D[(CH2CO2H)TriAzDab]AAFL[PyrS2″][3Thi][Bta]Q-NH2 (staple 1-4, 4-11) [I-2078] |
